Assay results published in US20200306385A1 (ADC THERAPEUTICS S A, published 2020).

Target: CD22 (human, UniProt P20273 20-847)
Experiment: cell-based or functional assay

B1: Epratuzumab-A (antibody, V domains shown)
VH: QVQLVQSGAEVKKPGSSVKVSCKASGYTFTSYWLHWVRQAPGQGLEWIGYINPRNDYTEYNQNFKDKATITADESTNTAYMELSSLRSEDTAFYFCARRDITTFYWGQG
VL: DIQLTQSPSSLSASVGDRVTMSCKSSQSVLYSANHKNYLAWYQQKPGKAPKLLIYWASTRESGVPSRFSGSGSGTDFTFTISSLQPEDIATYYCHQYLSSWTFGQG
modifications: PBD dimer drug-linker A (SG3246) conjugated to thiols of TCEP-reduced cysteine disulfide bridges; DAR 2.03; which cysteines are modified is not stated
  EC50 (µg/mL), in vitro cytotoxicity (cell survival, Alamar Blue, 4 days) on CD22+ve Daudi cells: 0.0136 µg/mL
  EC50 (µg/mL), in vitro cytotoxicity (cell survival, Alamar Blue, 4 days) on CD22+ve Ramos cells: 0.0332 µg/mL
  EC50 (µg/mL), in vitro cytotoxicity (cell survival, Alamar Blue, 4 days) on CD22+ve WSU-DLCL2 cells: 0.0243 µg/mL
